Test system: Escherichia coli TOP10
Assay: shrunken log2 fold change of peptide-encoding DNA abundance (4.5 h post-induction vs induction); higher = less antimicrobial activity (less host growth inhibition)
Details: time post-induction: 4.5 h; library: site-saturation at positions 5, 18, 19, 20
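Also: peptides expressed intracellularly from a pBAD plasmid library in pooled LB shake-flask culture, induced with 0.3% L-arabinose, DNA abundance read by NGS, three biological replicates, DESeq2 with apeglm shrinkage.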

| Sequence | shrunken log2 fold change |
| --- | --- |
| RRIRGRPPRLPRPRPRPAETPRP | -0.0775 |
| RRIRFRPPRLPRPRPRPECEPRP | 0.639 |
| RRIRQRPPRLPRPRPRPRHYPRP | -0.191 |
| RRIRQRPPRLPRPRPRPYLGPRP | -0.0158 |
| RRIRQRPPRLPRPRPRPKVPPRP | 0.105 |
| RRIRERPPRLPRPRPRPGYLPRP | -0.426 |
| RRIRGRPPRLPRPRPRPSAPPRP | 0.711 |
| RRIRGRPPRLPRPRPRPMCVPRP | 0.723 |
| RRIRIRPPRLPRPRPRPWLRPRP | -0.358 |
| RRIRCRPPRLPRPRPRPNCLPRP | -0.19 |
| RRIRDRPPRLPRPRPRPGAIPRP | 0.271 |
| RRIRPRPPRLPRPRPRPYLVPRP | -0.203 |
| RRIRTRPPRLPRPRPRPHVIPRP | -0.192 |
| RRIRYRPPRLPRPRPRPCVSPRP | -0.0134 |
| RRIRIRPPRLPRPRPRPNFNPRP | -0.745 |
| RRIRLRPPRLPRPRPRPMECPRP | -0.489 |
| RRIRRRPPRLPRPRPRPPTYPRP | 0.0139 |
| RRIRVRPPRLPRPRPRPVKKPRP | 0.02 |
| RRIRRRPPRLPRPRPRPATGPRP | 0.222 |
| RRIRMRPPRLPRPRPRPGYYPRP | -0.0156 |
| RRIRCRPPRLPRPRPRPGDKPRP | -0.441 |
| RRIRCRPPRLPRPRPRPPQPPRP | 0.858 |
| RRIRIRPPRLPRPRPRPMLFPRP | -0.328 |

| Sequence | shrunken log2 fold change |
| --- | --- |
| RRIRERPPRLPRPRPRPCHAPRP | -0.301 |
| RRIRIRPPRLPRPRPRPLYMPRP | -0.918 |
| RRIRCRPPRLPRPRPRPSGNPRP | -0.598 |
| RRIRIRPPRLPRPRPRPHPHPRP | -0.496 |
| RRIRWRPPRLPRPRPRPQQKPRP | -0.0581 |
| RRIRTRPPRLPRPRPRPIGTPRP | 0.0179 |
| RRIRYRPPRLPRPRPRPRYMPRP | -0.33 |
| RRIRYRPPRLPRPRPRPDWYPRP | -0.968 |
| RRIRTRPPRLPRPRPRPLCKPRP | -0.257 |
| RRIRLRPPRLPRPRPRPCWGPRP | 0.00437 |
| RRIRYRPPRLPRPRPRPYDTPRP | -0.149 |
| RRIRRRPPRLPRPRPRPTVGPRP | 0.0232 |
| RRIRRRPPRLPRPRPRPLPTPRP | 0.729 |
| RRIRVRPPRLPRPRPRPIHMPRP | -0.0179 |
| RRIRKRPPRLPRPRPRPIEMPRP | -0.202 |
| RRIRQRPPRLPRPRPRPMKPPRP | -0.0268 |
| RRIRYRPPRLPRPRPRPRGFPRP | -0.0875 |
| RRIRFRPPRLPRPRPRPCVYPRP | -0.0699 |
| RRIRCRPPRLPRPRPRPYMIPRP | -0.582 |
| RRIRVRPPRLPRPRPRPGECPRP | -0.145 |
| RRIRTRPPRLPRPRPRPIRTPRP | 0.063 |
| RRIRQRPPRLPRPRPRPTPTPRP | 0.336 |
| RRIRMRPPRLPRPRPRPTYKPRP | -0.0666 |

| Sequence | shrunken log2 fold change |
| --- | --- |
| RRIRWRPPRLPRPRPRPPYAPRP | 0.426 |
| RRIRFRPPRLPRPRPRPNGYPRP | -0.3 |
| RRIRFRPPRLPRPRPRPNIIPRP | -0.706 |
| RRIRSRPPRLPRPRPRPNYIPRP | -0.757 |
| RRIRKRPPRLPRPRPRPWMGPRP | -0.0352 |
| RRIRCRPPRLPRPRPRPPAIPRP | 0.532 |
| RRIRRRPPRLPRPRPRPVVWPRP | 0.643 |
| RRIRIRPPRLPRPRPRPSEHPRP | -0.36 |
| RRIRLRPPRLPRPRPRPFRPPRP | 0.0752 |
| RRIRERPPRLPRPRPRPTRVPRP | -0.0943 |
| RRIRHRPPRLPRPRPRPLDQPRP | -0.116 |
| RRIRWRPPRLPRPRPRPHVFPRP | -0.154 |
| RRIRRRPPRLPRPRPRPAYAPRP | -0.0409 |
| RRIRQRPPRLPRPRPRPTQCPRP | -0.343 |
| RRIRGRPPRLPRPRPRPEFDPRP | 1.8 |
| RRIRERPPRLPRPRPRPHHDPRP | -0.578 |
| RRIRCRPPRLPRPRPRPSCCPRP | 0.0437 |
| RRIRCRPPRLPRPRPRPATEPRP | 0.309 |
| RRIRYRPPRLPRPRPRPHEDPRP | -0.172 |
| RRIRIRPPRLPRPRPRPSDDPRP | -0.191 |
| RRIRKRPPRLPRPRPRPEMFPRP | 0.0732 |
| RRIRVRPPRLPRPRPRPHVQPRP | -0.0929 |
| RRIRCRPPRLPRPRPRPYELPRP | -0.18 |

| Sequence | shrunken log2 fold change |
| --- | --- |
| RRIRHRPPRLPRPRPRPRVIPRP | -0.12 |
| RRIRCRPPRLPRPRPRPFIQPRP | -1.04 |
| RRIRWRPPRLPRPRPRPEQNPRP | 0.117 |
| RRIRCRPPRLPRPRPRPRQDPRP | -0.0742 |
| RRIRTRPPRLPRPRPRPVRPPRP | 0.779 |
| RRIRERPPRLPRPRPRPQPPPRP | 0.104 |
| RRIRVRPPRLPRPRPRPAEYPRP | -0.124 |
| RRIRTRPPRLPRPRPRPGESPRP | -0.012 |
| RRIRMRPPRLPRPRPRPIWKPRP | 0.00523 |
| RRIRYRPPRLPRPRPRPGVMPRP | -0.55 |
| RRIRKRPPRLPRPRPRPVESPRP | 0.0629 |
| RRIRSRPPRLPRPRPRPKRCPRP | -0.0384 |
| RRIRARPPRLPRPRPRPATAPRP | 0.452 |
| RRIRFRPPRLPRPRPRPSYGPRP | -0.37 |
| RRIRQRPPRLPRPRPRPVWAPRP | -0.468 |
| RRIRARPPRLPRPRPRPLWDPRP | 0.022 |
| RRIRCRPPRLPRPRPRPKWPPRP | -0.0352 |
| RRIRKRPPRLPRPRPRPLLDPRP | 0.246 |
| RRIRGRPPRLPRPRPRPDCAPRP | 1.53 |
| RRIRMRPPRLPRPRPRPDLSPRP | 1.58 |
| RRIRGRPPRLPRPRPRPRTKPRP | 0.942 |
| RRIRHRPPRLPRPRPRPLSRPRP | 0.172 |

Reference: the supplement of paper PMC9112550, “Optimization of the antimicrobial peptide Bac7 by deep mutational scanning” (BMC Biology, 2022)
